Test results as given in patent US20220265819A1.

Experiments:
[1] = target: full length pHrodo-labelled monomeric (P301S) 2N4R tau (human) (UniProt P10636); test: cell-based or functional assay
[2] = target: full length pHrodo-labelled aggregated (P301S) 2N4R tau (human) (UniProt P10636); test: cell-based or functional assay
full length pHrodo-labelled aggregated (P301S) 2N4R tau (human), sequence (P10636 other isoform, or with tags, fused parts or gaps P301S P301S): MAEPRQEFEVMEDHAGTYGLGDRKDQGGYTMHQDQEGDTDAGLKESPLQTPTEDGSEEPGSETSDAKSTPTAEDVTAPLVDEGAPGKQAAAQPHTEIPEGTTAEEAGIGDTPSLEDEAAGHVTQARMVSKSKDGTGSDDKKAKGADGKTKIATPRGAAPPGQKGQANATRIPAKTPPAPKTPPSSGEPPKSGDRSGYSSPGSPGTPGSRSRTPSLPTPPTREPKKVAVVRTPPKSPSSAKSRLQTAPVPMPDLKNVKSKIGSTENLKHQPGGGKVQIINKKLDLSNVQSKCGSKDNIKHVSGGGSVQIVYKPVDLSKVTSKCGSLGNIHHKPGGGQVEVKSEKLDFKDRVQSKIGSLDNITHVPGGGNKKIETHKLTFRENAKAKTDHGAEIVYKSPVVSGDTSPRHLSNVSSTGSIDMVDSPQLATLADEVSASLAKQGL

full length pHrodo-labelled monomeric (P301S) 2N4R tau (human), sequence (P10636 other isoform, or with tags, fused parts or gaps P301S P301S): as above

inhibition of uptake of monomeric tau by human iPSC-derived astrocytes [1]: 39.8 % inhibition
inhibition of uptake of monomeric tau into human iPSC-derived neurons [1]: 41.2 % inhibition
inhibition of uptake of aggregated tau by human iPSC-derived astrocytes [2]: 46.3 % inhibition
inhibition of uptake of aggregated tau into human iPSC-derived neurons [2]: 65 % inhibition
inhibition of uptake of pHrodo-labelled aggregated tau into human iPSC-derived neurons at 4 h [2]: 69 % inhibition
B1: Clone 1 rabbit monoclonal IgG (antibody, V domains shown)
VH: QSLEESGGGLVKPGGTLTLTCTVSGFSLNNYDMSWVRQAPGKGLEWIGTVSTTYRRYYASWAKGRFTISKTSSTTVDLKMTSLTTEDTATYFCAASGIWGPGTLVTVSL
VL: AQVLTQTTSPVSAAVGGTVTINCQSSQRVYSNYLAWYQQKPGQPPKRLIFLASTLESGVPSRFSGSGSGTQFTLTISDLECDDAATYYCAGTYTGSIWAFGGGTEVVVKG
